Data published in patent US20220048967A1 (published 2022).
Where a chain is given by its changes, count along the chain named. Numbered stars: 1 amine (or outer) side, 2 acyl side, 3 side chain; on linkers, the order of the positions; unused ones are H or OH. Square brackets hold non-standard residues; d marks the D form. Side chains are listed from the residue outwards. Ends that are not written are not given here. * marks the point of attachment. C20 diacid = O=C(O)CCCCCCCCCCCCCCCCCCC(=O)*; γGlu = O=C(O)[C@H](CCC(=O)[*:2])N[*:1]; αMeL = CC(C)C[C@](C)(N)C(=O)O; Dab = NCC[C@H](N)C(=O)O; Dap = NC[C@H](N)C(=O)O; AEEA = NCCOCCOCC(=O)O; Aib = CC(C)(N)C(=O)O

B1: Example 348 (peptide)
peptide: [dY][Aib]EGTFTSDYSI[αMeL]LD[Dap]K([AEEA-AEEA-γGlu-C20 diacid])AQ[Aib]AFIEYLIAGGPSSGAPPPS-NH2
modifications: N-terminus assumed
SMILES: CC[C@H](C)[C@H](NC(=O)[C@H](CC(C)C)NC(=O)[C@H](Cc1ccc(O)cc1)NC(=O)[C@H](CCC(=O)O)NC(=O)[C@@H](NC(=O)[C@H](Cc1ccccc1)NC(=O)[C@H](C)NC(=O)C(C)(C)NC(=O)[C@H](CCC(N)=O)NC(=O)[C@H](C)NC(=O)[C@H](CCCCNC(=O)COCCOCCNC(=O)COCCOCCNC(=O)CC[C@H](NC(=O)CCCCCCCCCCCCCCCCCCC(=O)O)C(=O)O)NC(=O)[C@H](CN)NC(=O)[C@H](CC(=O)O)NC(=O)[C@H](CC(C)C)NC(=O)[C@](C)(CC(C)C)NC(=O)[C@@H](NC(=O)[C@H](CO)NC(=O)[C@H](Cc1ccc(O)cc1)NC(=O)[C@H](CC(=O)O)NC(=O)[C@H](CO)NC(=O)[C@@H](NC(=O)[C@H](Cc1ccccc1)NC(=O)[C@@H](NC(=O)CNC(=O)[C@H](CCC(=O)O)NC(=O)C(C)(C)NC(=O)[C@H](N)Cc1ccc(O)cc1)[C@@H](C)O)[C@@H](C)O)[C@@H](C)CC)[C@@H](C)CC)C(=O)N[C@@H](C)C(=O)NCC(=O)NCC(=O)N1CCC[C@H]1C(=O)N[C@@H](CO)C(=O)N[C@@H](CO)C(=O)NCC(=O)N[C@@H](C)C(=O)N1CCC[C@H]1C(=O)N1CCC[C@H]1C(=O)N1CCC[C@H]1C(=O)N[C@@H](CO)C(N)=O
B2: Example 347 (peptide)
peptide: [dY][Aib]EGTFTSDYSI[αMeL]LD[Dab]K([AEEA-AEEA-γGlu-C20 diacid])AQ[Aib]AFIEYLIAGGPSSGAPPPS-NH2
modifications: N-terminus assumed
SMILES: CC[C@H](C)[C@H](NC(=O)[C@H](CC(C)C)NC(=O)[C@H](Cc1ccc(O)cc1)NC(=O)[C@H](CCC(=O)O)NC(=O)[C@@H](NC(=O)[C@H](Cc1ccccc1)NC(=O)[C@H](C)NC(=O)C(C)(C)NC(=O)[C@H](CCC(N)=O)NC(=O)[C@H](C)NC(=O)[C@H](CCCCNC(=O)COCCOCCNC(=O)COCCOCCNC(=O)CC[C@H](NC(=O)CCCCCCCCCCCCCCCCCCC(=O)O)C(=O)O)NC(=O)[C@H](CCN)NC(=O)[C@H](CC(=O)O)NC(=O)[C@H](CC(C)C)NC(=O)[C@](C)(CC(C)C)NC(=O)[C@@H](NC(=O)[C@H](CO)NC(=O)[C@H](Cc1ccc(O)cc1)NC(=O)[C@H](CC(=O)O)NC(=O)[C@H](CO)NC(=O)[C@@H](NC(=O)[C@H](Cc1ccccc1)NC(=O)[C@@H](NC(=O)CNC(=O)[C@H](CCC(=O)O)NC(=O)C(C)(C)NC(=O)[C@H](N)Cc1ccc(O)cc1)[C@@H](C)O)[C@@H](C)O)[C@@H](C)CC)[C@@H](C)CC)C(=O)N[C@@H](C)C(=O)NCC(=O)NCC(=O)N1CCC[C@H]1C(=O)N[C@@H](CO)C(=O)N[C@@H](CO)C(=O)NCC(=O)N[C@@H](C)C(=O)N1CCC[C@H]1C(=O)N1CCC[C@H]1C(=O)N1CCC[C@H]1C(=O)N[C@@H](CO)C(N)=O
B3: Example 350 (peptide)
peptide: [dY][Aib]EGTFTSDYSI[αMeL]LD[Dab]K([AEEA-AEEA-γGlu-C20 diacid])AQ[Aib]EFIEYLIAGGPSSGAPPPS-NH2
modifications: N-terminus assumed
SMILES: CC[C@H](C)[C@H](NC(=O)[C@H](CC(C)C)NC(=O)[C@H](Cc1ccc(O)cc1)NC(=O)[C@H](CCC(=O)O)NC(=O)[C@@H](NC(=O)[C@H](Cc1ccccc1)NC(=O)[C@H](CCC(=O)O)NC(=O)C(C)(C)NC(=O)[C@H](CCC(N)=O)NC(=O)[C@H](C)NC(=O)[C@H](CCCCNC(=O)COCCOCCNC(=O)COCCOCCNC(=O)CC[C@H](NC(=O)CCCCCCCCCCCCCCCCCCC(=O)O)C(=O)O)NC(=O)[C@H](CCN)NC(=O)[C@H](CC(=O)O)NC(=O)[C@H](CC(C)C)NC(=O)[C@](C)(CC(C)C)NC(=O)[C@@H](NC(=O)[C@H](CO)NC(=O)[C@H](Cc1ccc(O)cc1)NC(=O)[C@H](CC(=O)O)NC(=O)[C@H](CO)NC(=O)[C@@H](NC(=O)[C@H](Cc1ccccc1)NC(=O)[C@@H](NC(=O)CNC(=O)[C@H](CCC(=O)O)NC(=O)C(C)(C)NC(=O)[C@H](N)Cc1ccc(O)cc1)[C@@H](C)O)[C@@H](C)O)[C@@H](C)CC)[C@@H](C)CC)C(=O)N[C@@H](C)C(=O)NCC(=O)NCC(=O)N1CCC[C@H]1C(=O)N[C@@H](CO)C(=O)N[C@@H](CO)C(=O)NCC(=O)N[C@@H](C)C(=O)N1CCC[C@H]1C(=O)N1CCC[C@H]1C(=O)N1CCC[C@H]1C(=O)N[C@@H](CO)C(N)=O
B4: Example 351 (peptide)
peptide: [dY][Aib]EGTFTSDYSI[αMeL]LD[Dap]K([AEEA-AEEA-γGlu-C20 diacid])AQ[Aib]EFIEYLIAGGPSSGAPPPS-NH2
modifications: N-terminus assumed
SMILES: CC[C@H](C)[C@H](NC(=O)[C@H](CC(C)C)NC(=O)[C@H](Cc1ccc(O)cc1)NC(=O)[C@H](CCC(=O)O)NC(=O)[C@@H](NC(=O)[C@H](Cc1ccccc1)NC(=O)[C@H](CCC(=O)O)NC(=O)C(C)(C)NC(=O)[C@H](CCC(N)=O)NC(=O)[C@H](C)NC(=O)[C@H](CCCCNC(=O)COCCOCCNC(=O)COCCOCCNC(=O)CC[C@H](NC(=O)CCCCCCCCCCCCCCCCCCC(=O)O)C(=O)O)NC(=O)[C@H](CN)NC(=O)[C@H](CC(=O)O)NC(=O)[C@H](CC(C)C)NC(=O)[C@](C)(CC(C)C)NC(=O)[C@@H](NC(=O)[C@H](CO)NC(=O)[C@H](Cc1ccc(O)cc1)NC(=O)[C@H](CC(=O)O)NC(=O)[C@H](CO)NC(=O)[C@@H](NC(=O)[C@H](Cc1ccccc1)NC(=O)[C@@H](NC(=O)CNC(=O)[C@H](CCC(=O)O)NC(=O)C(C)(C)NC(=O)[C@H](N)Cc1ccc(O)cc1)[C@@H](C)O)[C@@H](C)O)[C@@H](C)CC)[C@@H](C)CC)C(=O)N[C@@H](C)C(=O)NCC(=O)NCC(=O)N1CCC[C@H]1C(=O)N[C@@H](CO)C(=O)N[C@@H](CO)C(=O)NCC(=O)N[C@@H](C)C(=O)N1CCC[C@H]1C(=O)N1CCC[C@H]1C(=O)N1CCC[C@H]1C(=O)N[C@@H](CO)C(N)=O
B5: Example 349 (peptide)
peptide: XXEGTFTSDYSIXLDXKAQXEFIEYLIAGGPSSGAPPPS
modifications: D-Tyr1, Aib2, αMeL13, Orn16, K17 conjugated to (2-[2-(2-Amino-ethoxy)-ethoxy]-acetyl)2-(γ-Glu)-CO-(CH2)18-CO2H, Aib20, C-terminal amide (NH2)
B6: Example 358 (peptide)
peptide: B5 peptide with E21A, I23V
modifications: D-Tyr1, Aib2, αMeL13, Orn16, K17 conjugated to (2-[2-(2-Amino-ethoxy)-ethoxy]-acetyl)2-(γ-Glu)-CO-(CH2)18-CO2H, Aib20, C-terminal amide (NH2)
B7: Example 291 (peptide)
peptide: B5 peptide with E21A, E24X
modifications: D-Tyr1, Aib2, αMeL13, Orn16, K17 conjugated to (2-[2-(2-Amino-ethoxy)-ethoxy]-acetyl)2-(γ-Glu)-CO-(CH2)18-CO2H, Aib20, D-Glu24, C-terminal amide (NH2)
B8: Example 353 (peptide)
peptide: B5 peptide with X16K, E24X, A28E
modifications: D-Tyr1, Aib2, αMeL13, K17 conjugated to (2-[2-(2-Amino-ethoxy)-ethoxy]-acetyl)2-(γ-Glu)-CO-(CH2)18-CO2H, Aib20, D-Glu24, C-terminal amide (NH2)
B9: Example 352 (peptide)
peptide: B5 peptide with X16K, E21A, E24X
modifications: D-Tyr1, Aib2, αMeL13, K17 conjugated to (2-[2-(2-Amino-ethoxy)-ethoxy]-acetyl)2-(γ-Glu)-CO-(CH2)18-CO2H, Aib20, D-Glu24, C-terminal amide (NH2)
B10: Example 293 (peptide)
peptide: B5 peptide with Y25X
modifications: D-Tyr1, Aib2, αMeL13, Orn16, K17 conjugated to (2-[2-(2-Amino-ethoxy)-ethoxy]-acetyl)2-(γ-Glu)-CO-(CH2)18-CO2H, Aib20, αMeY25, C-terminal amide (NH2)
B11: Example 292 (peptide)
peptide: B5 peptide with X16K, Y25X
modifications: D-Tyr1, Aib2, αMeL13, K17 conjugated to (2-[2-(2-Amino-ethoxy)-ethoxy]-acetyl)2-(γ-Glu)-CO-(CH2)18-CO2H, Aib20, αMeY25, C-terminal amide (NH2)
B12: Example 355 (peptide)
peptide: B5 peptide with E24X, A28E
modifications: D-Tyr1, Aib2, αMeL13, Orn16, K17 conjugated to (2-[2-(2-Amino-ethoxy)-ethoxy]-acetyl)2-(γ-Glu)-CO-(CH2)18-CO2H, Aib20, D-Glu24, C-terminal amide (NH2)
B13: Example 359 (peptide)
peptide: B5 peptide with I23V
modifications: D-Tyr1, Aib2, αMeL13, Orn16, K17 conjugated to (2-[2-(2-Amino-ethoxy)-ethoxy]-acetyl)2-(γ-Glu)-CO-(CH2)18-CO2H, Aib20, C-terminal amide (NH2)
B14: Example 363 (peptide)
peptide: B5 peptide with E21A, E24X
modifications: D-Tyr1, Aib2, αMeL13, Orn16, K17 conjugated to (2-[2-(2-Amino-ethoxy)-ethoxy]-acetyl)2-(γ-Glu)-CO-(CH2)16-CO2H, Aib20, D-Glu24, C-terminal amide (NH2)
B15: Example 354 (peptide)
peptide: B5 peptide with E24X
modifications: D-Tyr1, Aib2, αMeL13, Orn16, K17 conjugated to (2-[2-(2-Amino-ethoxy)-ethoxy]-acetyl)2-(γ-Glu)-CO-(CH2)18-CO2H, Aib20, D-Glu24, C-terminal amide (NH2)

Experiments:
[1] = biological target: Pro-Link-tagged Human GLP-1R (human, UniProt P43220 24-463); assay: cell-based or functional assay
human GLP-1 receptor = human GLP-1 receptor (human, UniProt P43220 24-463); assay: cell-based or functional assay

Binder	hGLP1R B-Arrestin2 % Top [1]	hGLP1R B-Arrestin2 Rel EC50 [1]	hGLP1R GTPgS % Top (human GLP-1 receptor)	hGLP1R GTPgS Rel EC50 (human GLP-1 receptor)
B1	19.8%	3.46 nM	47.7%	0.66 nM
B2	24.6%	5.42 nM	46.9%	0.759 nM
B3	21.8%	10.8 nM	64.1%	0.589 nM
B4	23.5%	19.6 nM	66.5%	0.563 nM
B5	18.4%	15.1 nM	64.5%	0.464 nM
B6	21.4%	9.38 nM	72.3%	0.414 nM
B7		> 10000 nM	65%	0.466 nM
B8	23%	559 nM	63.1%	1.96 nM
B9	17.4%	4.21 nM	63.5%	0.552 nM
B10	29.5%	7.19 nM	70.6%	0.368 nM
B11	29%	7.74 nM	71.5%	0.429 nM
B12	18.3%	363 nM	50.6%	1.76 nM
B13	28.4%	84.1 nM	69.7%	0.496 nM
B14	22.1%	135 nM	69.6%	0.943 nM
B15	22.7%	255 nM	53.3%	0.967 nM
